Test results published in patent publication US20110301104A1, “Transition state structure of orotate phosphoribosyl transferases and uses thereof” (priority 2008, published 2011).

How the values were obtained:
Experiment in all cases: purified protein, by the assay type
[1] = substrate: O=C(O)c1cc(=O)[nH]c(=O)n1[C@@H]1O[C@H](COP(=O)(O)O)[C@@H](O)[C@H]1O; type: biochemical, Plasmodium falciparum; conditions: 25° C., pH 8.0, 25.0 °C
Method: (§1) Expression and Purification of PfOPRT and HsOPRT. The pDEST14 vectors encoding the two OPRT genes were transformed into BL21-AI E. coli competent cells and grown in LB+Amp (100 μg mL^−1) at 37° C. to an OD600 of 0.6. Protein expression was induced by adding 0.02% L-arabinose with overnight growth at 37° C. Cells were harvested by centrifugation at 4° C., weighted and resuspended in lysis buffer (20 mM Tris-HCl, 500 mM NaCl and 5 mM Imidazole, pH=7.9, 3 mL/gram cell pellet). Lysozyme (100 μg mL^−1), DNase I (10 μg mL^−1) and protease inhibitor (1 tablet/8 grams of cells) (Roche Applied Science, Indianapolis, Ind.) were added to the solution. Following disruption in a French Press, cell lysate was centrifuged at 30,000 g for […] at 4° C. […] The 6×His-OPRTs were eluted with a gradient of imidazole (20 mM ˜500 mM). The OPRT bands were visualized on SDS-PAGE gels and fractions with high purity were pooled, made to 10% glycerol and 10 mM β-ME (final concentration), concentrated and dialyzed overnight at 4° C. to remove imidazole. His-tags were removed during dialysis by the presence of thrombin (1 unit/0.1 mg). His-tag free OPRTs were purified by Superdex 200 26/60 Gel filtration column, concentrated and stored at −80° C. […] Reactions were monitored by the absorbance increase at 295 nm to give an extinction coefficient of 3.67 mM^−1 cm^−1.

[2] = substrate: O=C(O)CP(=O)(O)O; type: biochemical, Plasmodium falciparum; conditions: other: PA as slow substrate
Method: as §1

[3] = substrate: O=C(O)CP(=O)(O)O; conditions: other: PA as slow substrate
[4] = substrate: O=C(O)c1cc(=O)[nH]c(=O)n1[C@@H]1O[C@H](COP(=O)(O)O)[C@@H](O)[C@H]1O; type: biochemical, human; conditions: 25° C., pH 8.0
Method: as §1

[5] = other: OMP with PA (20 mM) as substrate
[6] = other: OMP with PPi (1 mM) as substrate

Row | Protein | Km [1, 5] [µM] | kcat [1, 5] [s⁻¹] | kcat/Km [1, 5] [M⁻¹ s⁻¹] | Km [1, 6] [µM] | kcat [1, 6] [s⁻¹] | kcat/Km [1, 6] [M⁻¹ s⁻¹] | Km [2] [mM] | kcat [2] [s⁻¹] | Km [3] [mM] | kcat [3] [s⁻¹] | Km [4, 5] [µM] | kcat [4, 5] [s⁻¹] | kcat/Km [4, 5] [M⁻¹ s⁻¹] | Km [4, 6] [µM] | kcat [4, 6] [s⁻¹] | kcat/Km [4, 6] [M⁻¹ s⁻¹]
1 | PfOPRT (Plasmodium falciparum 3D7) (protein, His6 (thrombin-cleavable) (N, cleaved yes); made in house; host or cells: E. coli BL21-AI) MTTIKENEFLCDEEIYKSFVHLKDKICEERKKKELVNNNIDNVNFNDDDDNNYDDDGNSYSSYIKEMKKLLKVVLLKYKALKFGEFILKSKRKSNYFFSSGVLNNIVSSNIICFLLSELILKNKLSFDYLLGASYKGIPMVSLTSHFLFESKKYSNIFYLYDRKEKKEYGDKNVIVGNLDDDDKDILNLKKKTKNNQDEEKKNIIIIDDVFTCGTALTEILAKLKTYEHLKVVAFIVLLNRNEYEINENNQKIYFKDIFEKRVGIPLYSILSYKDDIQSMI | 2.90 ± 1.09 | 0.014 ± 0.002 | 4800 | 3.73 ± 1.36 | 1.96 ± 0.29 | 530000 | 1.59 | 0.023 | – | – | – | – | – | – | – | –
2 | HsOPRT (Homo sapiens) (protein, This HsUMPase truncation construct only expresses its HsOPRT domain; His6 (thrombin-cleavable) (N, cleaved yes); made in house; host or cells: E. coli BL21-AI) MAVARAALGPLVTGLYDVQAFKFGDFVLKSGLSSPIYIDLRGIVSRPRLLSQVADILFQTAQNAGISFDTVCGVPYTALPLATVICSTNQIPMLIRRKETKDYGTKRLVEGTINPGETCLIIEDVVTSGSSVLETVEVLQKEGLKVTDAIVLLDREQGGKDKLQAHGIRLHSVCTLSKMLEILEQQKKVDAETVGRVKRFIQENVFVAANHNGSPLSIKEAPKELSFGARAELPRIHPVASKLLR | – | – | – | – | – | – | – | – | 3.84 | 0.017 | 2.14 ± 0.61 | 0.017 ± 0.002 | 7900 | 1.55 ± 0.61 | 0.10 ± 0.01 | 65000
